Assay results as given in article PMC4005822, “Biochemical and functional characterization of Plasmodium falciparum GTP cyclohydrolase I” (Malaria Journal, 2014).

How the values were obtained:
[1] = biological target: T1, Plasmodium falciparum Δ1-195 GCH1 (core GCH1) (Plasmodium falciparum, UniProt Q8I5H7); test: fluorescence of iodine-oxidised neopterin product; initial velocity at various GTP concentrations; assay type: biochemical; conditions: GTP as substrate; called competitive by the authors
T1 construct: gene PF3D7_1224000; C-terminal core domain, residues 196-389 (N-terminal 1-195 deleted); pET45b(+), E. coli BL21(DE3)RIL, Ni-sepharose purified (His tag); homodecamer

[2] = tested on: Nc1nc2c(ncn2[C@@H]2O[C@H](COP(=O)(O)OP(=O)(O)OP(=O)(O)O)[C@@H](O)[C@H]2O)c(=O)[nH]1; test: fluorescence of iodine-oxidised neopterin product; assay type: biochemical, Plasmodium falciparum; conditions: 50 mM Tris–HCl pH 7.8, 100 mM KCl, 20% glycerol, 37°C

T1 sequence (Q8I5H7 entry or part of it, stated change not applied): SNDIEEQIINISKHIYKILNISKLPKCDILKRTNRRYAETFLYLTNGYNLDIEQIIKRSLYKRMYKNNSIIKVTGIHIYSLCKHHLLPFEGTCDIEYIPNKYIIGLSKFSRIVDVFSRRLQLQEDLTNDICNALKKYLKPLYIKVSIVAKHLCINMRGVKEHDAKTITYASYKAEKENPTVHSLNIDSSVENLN

Row | Molecule | fluorescence of iodine-oxidised neopterin product; initial velocity at various G [1] | Km [2] | kcat [2]
1 | Nc1nc2c([nH]c(=O)n2[C@@H]2O[C@H](COP(=O)(O)OP(=O)(O)OP(=O)(O)O)[C@@H](O)[C@H]2O)c(=O)[nH]1 [8-oxo-GTP] | 8-oxo-GTP could inhibit the activity of P. falciparum GCH1 with reduced fluorescent signal | – | –
2 | Plasmodium falciparum Δ1-195 GCH1 (core GCH1) (Plasmodium falciparum 3D7) | – | 12.06 µM | 0.039 s⁻¹
